Measurements: patent publication US20210309720A1 (MIT, published 2021)

T1: CCL25 (UniProt O15444 24-150)
T1 sequence (looked up): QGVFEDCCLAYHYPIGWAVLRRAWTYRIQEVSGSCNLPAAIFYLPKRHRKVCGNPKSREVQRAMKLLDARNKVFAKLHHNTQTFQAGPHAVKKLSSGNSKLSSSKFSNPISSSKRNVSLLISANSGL

T2: IL8 (UniProt P10145 28-99, limits assumed)
T2 sequence (looked up): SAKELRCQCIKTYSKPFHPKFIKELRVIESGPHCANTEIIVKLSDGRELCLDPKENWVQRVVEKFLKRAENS

B1: CCR9-QTY Fc (Fc fusion)
chain: MTPTDFTSPIPNMADDYGSESTSSMEDYVNFNFTDFYCEKNNVRQFASHYQPPQYWQTYTTGAQGNSQTTQTYWYCTRVKTMTDMYQQNQATADQQYQTTQPYWATAAADQWKFQTFMCKTTNSMYKMNYYSCTQQTMCTSTDRYTATAQAMRAHTWREKRQQYSKMTCYTTWTQAAAQCTPETQYSQIKEESGIAICTMVYPSDESTKQKSATQTQKTTQGYYQPYTTMACCYTTTTHTQTQAKKSSKHKAQKTTTTTQTTYTQSQYPYNCTQQTQTTDAYAMFISNCATSTNTDTCYQTTQTTAYYHSCQNPTQYTYTGERFRRDLVKTLKNLGCISQAQWVSFTRREGSLKLSSMLLETTSGALSLTETSQVAPAHHHHHHHHHHTETSQVAPAHHHHHHHHHHGSKLVDPRGPTIKPCPPCKCPAPNLLGGPSVFIFPPKIKDVLMISLSPIVTCVVVDVSEDDPDVQISWFVNNVEVHTAQTQTHREDYNSTLRVVSALPIQHQDWMSGKEFKCKVNNKDLPAPIERTISKPKGSVRAPQVYVLPPPEEEMTKKQVTLTCMVTDFMPEDIYVEWTNNGKTELNYKNTEPVLDSDGSYFMYSKLRVEKKNWVERNSYSCSVVHEGLHNHHTTKSFSRTPGK
modifications: labeled with NT647 fluorescent dye (Monolith NT 2nd generation protein labeling kit RED-NHS)
notes: also called Fc fusion QTY CCR9 variant receptor protein
B2: CXCR2-QTY Fc (Fc fusion)
chain: MEDFNMESDSFEDFWKGEDLSNYSYSSTLPPFLLDAAPCEPESLEINKYYTTTTYAQTYQQSQQGNSQTMQTTQYSRVGRSVTDTYQQNQAQADQQYAQTQPTWAASKVNGWIFGTFLCKTTSQQKETNYYSGTQQQACTSTDRYLAIVHATRTLTQKRYLVKYTCQSTWGQSQQQAQPTQQYRRTVYSSNVSPACYEDMGNNTANWRMQQRTQPQSYGYTQPQQTMQYCYGFTLRTLFKAHMGQKHRAMRTTYATTQTYQQCWQPYNQTQQADTLMRTQVIQETCERRNHIDRAQDATETQGTQHSCQNPQTYAYTGQKFRHGLLKILAIHGLISKDSLPKDSRPSFVGSSSGHTSTTLTETSQVAPAHHHHHHHHHHGSKLVDPRGPTIKPCPPCKCPAPNLLGGPSVFIFPPKIKDVLMISLSPIVTCVVVDVSEDDPDVQISWFVNNVEVHTAQTQTHREDYNSTLRVVSALPIQHQDWMSGKEFKCKVNNKDLPAPIERTISKPKGSVRAPQVYVLPPPEEEMTKKQVTLTCMVTDFMPEDIYVEWTNNGKTELNYKNTEPVLDSDGSYFMYSKLRVEKKNWVERNSYSCSVVHEGLHNHHTTKSFSRTPGK
modifications: labeled with NT647 fluorescent dye (Monolith NT 2nd generation protein labeling kit RED-NHS)
notes: also called Fc fusion QTY CXCR2 variant receptor protein

Columns and labels:
CCL25 = target: T1, CCL25; assay: MicroScale Thermophoresis, 5 nM NT647-labeled receptor against a gradient of ligand, 25 C
Procedure: (§1) The affinity of QTY modified cytokine receptor fused with Fc of IgG for their respective native ligands was measured using MicroScale Thermophoresis (MST). Changes in thermophoretic movement for labeled proteins upon ligand-binding were recorded and plotted as a function of ligand concentration.
(§2) MicroScale Thermophoresis (MST) is an optical method detecting changes in thermophoretic movement and TRIC of the protein-attached fluorophore upon ligand binding. Active labelled proteins contribute to the thermophoresis signal upon ligand binding. […] Herein ligand binding experiments were carried out with 5 nM NT647-labeled protein in 1×PBS, 10 mM DTT buffer with different concentration of arginine, against a gradient of respective ligands on a Monolith NT.115 pico instrument at 25° C. Synthesized receptors were labeled with Monolith NT™ 2nd generation protein labeling kit RED-NHS (NanoTemper Technologies) so as to obtain unique fluorescent signals. MST time traces were recorded and analyzed to obtain the highest possible signal-to-noise levels and amplitudes, >5 Fnorm units. The recorded fluorescence was plotted against the concentration of ligand, and curve fitting was performed using the Kd fit formula derived from the law of mass action. For clarity, binding graphs of each independent experiment were normalized to the fraction bound (0=unbound, 1=bound). […]

IL8 = target: T2, IL8; assay: as above
Procedure: as §1, §2

Binder | Kd (CCL25) [nM] | Kd (IL8) [nM]
B1 | 37.2 | 
B2 |  | 60.3
